From paper PMC10123652, “An Antibody Targeting Fibroblast Activation Protein Simultaneously Fused to Interleukin-2 and Tumor Necrosis Factor Selectively Localizes to Neoplastic Lesions” (Antibodies, 2023)

Experiments:
[1] = molecular target: T1, recombinant human fibroblast activation protein (FAP) (Homo sapiens, UniProt Q12884); experiment: ELISA; plate coated with 0.1 µM human FAP overnight at 4 °C in 50 mM HEPES, 100 mM NaCl, pH 7.4; serial dilutions of IL2-7NP2-TNF^mut in 2% milk-PBS, 4 h at RT; detection with Protein A-HRP; triplicate; conditions: both partners purified
T1 construct: also called human FAP antigen; hFAP

[2] = molecular target: IL2-7NP2-TNF^mut (human); experiment: SEC; Superdex 200 Increase 10/300 GL; purified protein dialyzed against PBS pH 7.4; IgG (150 kDa) and SIP (80 kDa) as controls

T1 sequence (Q12884 whole entry): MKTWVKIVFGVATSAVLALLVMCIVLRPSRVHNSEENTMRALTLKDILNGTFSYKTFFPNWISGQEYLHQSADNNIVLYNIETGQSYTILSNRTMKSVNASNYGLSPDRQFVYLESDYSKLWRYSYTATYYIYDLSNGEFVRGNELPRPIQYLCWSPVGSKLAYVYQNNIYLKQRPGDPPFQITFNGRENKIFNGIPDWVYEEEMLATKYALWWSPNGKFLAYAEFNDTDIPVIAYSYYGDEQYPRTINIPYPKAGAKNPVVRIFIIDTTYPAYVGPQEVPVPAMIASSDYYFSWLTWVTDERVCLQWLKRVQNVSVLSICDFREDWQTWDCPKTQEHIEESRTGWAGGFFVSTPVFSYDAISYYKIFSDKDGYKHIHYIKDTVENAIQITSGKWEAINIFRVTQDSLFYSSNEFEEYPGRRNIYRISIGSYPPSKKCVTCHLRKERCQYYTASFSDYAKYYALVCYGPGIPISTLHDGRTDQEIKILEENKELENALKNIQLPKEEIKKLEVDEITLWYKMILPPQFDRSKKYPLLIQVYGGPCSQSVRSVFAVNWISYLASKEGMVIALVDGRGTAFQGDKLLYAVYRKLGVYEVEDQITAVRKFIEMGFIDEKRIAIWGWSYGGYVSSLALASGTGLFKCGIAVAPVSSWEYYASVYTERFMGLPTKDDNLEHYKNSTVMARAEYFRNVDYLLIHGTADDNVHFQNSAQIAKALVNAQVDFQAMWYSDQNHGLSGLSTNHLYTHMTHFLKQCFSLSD

B1: IL2-7NP2-TNF^mut (other, human)
VH: EVQLLESGGGLVQPGGSLRLSCAASGFTFSSYAMSWVRQAPGKGLEWVSAIGSVGGPTYYADSVKGRFTISRDNSKNTLYLQMNSLRAEDTAVYYCAKRLAWFDYWGQGTLVTVSS
VL: EIVLTQSPGTLSLSPGERATLSCRASQSVSSSYLAWYQQKPGQAPRLLIYGASSRATGIPDRFSGSGSGTDFTLTISRLEPEDFAVYYCQQSGKGPLTFGQGTKVEIK
notes: wild-type human interleukin-2 (IL2), N-terminal moiety of the fusion; mutated version of human TNF (TNFα); Non-covalent homotrimer; also called dual-cytokine antibody fusion protein
A Kd [1] of roughly 0.1 nM and a stoichiometry N [2] of 3 were found for B1 in this work.
